Like-named read-outs stand apart in the source and are kept apart here.

In series [1] the test system is T1, Pf4r (repressor C) (Pseudomonas aeruginosa PAO1 (Pf4 filamentous prophage)), ORF:4ff4b857.
T1 sequence: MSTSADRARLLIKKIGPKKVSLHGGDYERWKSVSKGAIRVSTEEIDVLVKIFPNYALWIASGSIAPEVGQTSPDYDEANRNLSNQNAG
Nature of the series: EMSA. On the technique in general: In EMSA bound probe runs differently from free probe, usually more slowly.

The target in series [2] is Pf6r, repressor of the Pf6 filamentous phage (wild type) (Pf6 filamentous phage (prophage of Pseudomonas aeruginosa PAO1)). As to the kind of experiment: SEC-MALS; Superdex 75 5/150 equilibrated with PBS; samples prepared in 20 mM HEPES pH 7.5, 300 mM NaCl, 10% glycerol, 2 mM TCEP; 50 uL loaded at 20 mg/mL; monomer to dimer.
Series [3] deals with Pf4r, repressor C protein of the Pf4 filamentous phage (wild type) (Pf4 filamentous phage (prophage of Pseudomonas aeruginosa PAO1)). The series is described as above.

Consider “TTTTGGGGCCGATTTTCTTGATTAATAGTCTTGCTCTATCGGCTGACGTGCTCATATAGAAATTTATTCCGGTGAAATAGTTGCCCTGACGTGGCTTTGGGGAGATAATTTCTCCAGGGTAATTATTTCTCTA (double strand) [Ppf4r-doubleSNP]”, for which the binding result in series [1] is reported as “no binding”.
Take “TTTTGGGGCCGATTTTCTTGATTAATAGTCTTGCTCTATCGGCTGACGTGCTCATATAGAAATTTATTCCGGGGAAATAGTTGCCCTGACGTGGCTTTGGGGAGATAATTTCTCCAGGGTAATTATTTCTCTA (double strand) [Ppf4r-A>G]”: the binding entry in series [1] is recorded as “no binding”.
As for “Pf6r, repressor of the Pf6 filamentous phage (wild type) (natural protein)”, the stoichiometry N in series [2] worked out at 2.
On to “TTTTGGGGCCGATTTTCTTGATTAATAGTCTTGCTCTATCGGCTGACGTGCTCATATAGAAATTTATTCCGGTGAAATAGTTGCCCTGACGTGGCTTTGGGGAAATAATTTCTCCAGGGTAATTATTTCTCTA (double strand) [Ppf4r-G>T]”, for which the binding result in series [1] was “binds more weakly”.
“Pf4r, repressor C protein of the Pf4 filamentous phage (wild type) (natural protein)”: in series [3], the stoichiometry N was 2.
Regarding “TTTTGGGGCCGATTTTCTTGATTAATAGTCTTGCTCTATCGGCTGACGTGCTCATATAGAAATTTATTCCGGGGAAATAGTTGCCCTGACGTGGCTTTGGGGAAATAATTTCTCCAGGGTAATTATTTCTCTA (double strand) [Ppf4r]”, in series [1] (EMSA: 10 mM Tris, 1 mM DTT, 2.5% glycerol, 5 ug/uL BSA, 0.05% NP-40, 80 mM KCl, 5 mM MgCl2, 2 mM EDTA, 10 fmol probe, 30 min, 30 C (protein diluted in TE pH …)), the binding result is “binds”.

What is called stoichiometry N is the number of molecules, sites or subunits per partner or assembly.

The record behind these values is publication PMC8402870.
